Tests used:
His6-SUMO-TDP-43 [1] = molecular target: T1, His6-SUMO-TDP-43 (UniProt Q13148 1-414); test: fluorescence anisotropy
His6-SUMO-TDP-43 [2] = molecular target: T1, His6-SUMO-TDP-43; test: fluorescence anisotropy; remark: listed apart in the source

T1 sequence (Q13148 whole entry): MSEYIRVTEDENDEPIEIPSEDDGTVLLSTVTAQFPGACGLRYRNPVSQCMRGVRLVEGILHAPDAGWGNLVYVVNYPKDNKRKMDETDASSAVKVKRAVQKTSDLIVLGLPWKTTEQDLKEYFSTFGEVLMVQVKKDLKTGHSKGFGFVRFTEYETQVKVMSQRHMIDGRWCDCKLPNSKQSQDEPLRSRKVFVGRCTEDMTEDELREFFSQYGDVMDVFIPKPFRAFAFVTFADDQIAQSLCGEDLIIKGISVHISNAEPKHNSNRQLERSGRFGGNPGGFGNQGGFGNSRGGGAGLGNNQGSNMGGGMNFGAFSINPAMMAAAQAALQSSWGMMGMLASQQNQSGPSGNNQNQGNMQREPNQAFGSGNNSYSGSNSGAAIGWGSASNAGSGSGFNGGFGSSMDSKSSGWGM

Binder | Kd (His6-SUMO-TDP-43 [1]) [nM] | binding result (His6-SUMO-TDP-43 [2])
TGTGTGTG (ssDNA) [(TG)4] | ~1800 | –
ACACACAC (ssDNA) [(AC)4] | – | no binding
